Assay results as given in patent US12428658B2, “Methods and compositions for enzymatic polymerization of N3′→P5′ phosphoramidate DNA” (The General Hospital Corporation, priority 2019, dated 2025).
Where two headings read alike, the source gives them in different places.

Tests used:
[1] = tested on: 3′-amino terminal DNA primer / DNA template duplex; assay: 3′-amino primer extension assay (single nucleotide addition, pre-steady-state NP activity); assay type: biochemical
Method: (§1) Primer extension assays. Except where indicated, all extension reactions were performed with 1 μM fluorescein-labeled primer, 1.5 μM template, and ˜1.1 μM purified His6-tagged protein at 55° C. in a reaction buffer composed of 40 mM Tris-HCl, pH 8.8, 1 mM DTT, and a divalent cation as specified, typically 10 mM CaCl2. Reaction mixtures were equilibrated at the indicated reaction temperature for 1 min and initiated by addition of substrate. Progress was monitored by sampling 1 μL from the reaction manually quenched into 24 μL of chilled 90% formamide, 10 mM EDTA. Quenched samples were denatured at 90° C. for 1 min and cooled to room temperature prior to separation by denaturing polyacrylamide gel electrophoresis on 20% TBE-urea gels. To maintain strand separation for long extension products, as in FIGS. 3F-31I, an unlabeled DNA oligonucleotide complementary to the template was added to the quenching buffer (˜2 μM) prior to denaturation. Typically, 3 or 4 μL of quenched sample was loaded per lane for gels of 0.75-mm thickness. Bands were visualized with a Typhoon laser scanning imager (GE Amersham) and quantified with the manufacturer's software. For acid digestion of extended products, a reaction sample was diluted with 2.5 volumes of 1% acetic acid, 10 mM EDTA in formamide and digested at 75° C. for 45 min prior to gel separation.

[2] = tested on: 3′-amino terminal DNA primer / mixed sequence template duplex; assay: Multiple-turnover NP-DNA synthesis by 3′-amino primer extension with all four nNTPs on a mixed sequence template; assay type: biochemical; settings: 55° C., Ca2+
Method: as §1

B1: F710Y: B. stearothermophilus DNA polymerase I large fragment (BF) with single active site mutation F710Y in the O helix (protein, listed as Bacillus stearothermophilus)
chain: MKNKLVLIDGNSVAYRAFFALPLLHNDKGIHTNAVYGFTMMLNKILAEEQPTHILVAFDAGKTTFRHETFQDYKGGRQQTPPELSEQFPLLRELLKAYRIPAYELDHYEADDIIGTMAARAEREGFAVKVISGDRDLTQLASPQVTVEITKKGITDIESYTPETVVEKYGLTPEQIVDLKGLMGDKSDNIPGVPGIGEKTAVKLLKQFGTVENVLASIDEIKGEKLKENLRQYRDLALLSKQLAAICRDAPVELTLDDIVYKGEDREKVVALFQELGFQSFLDKMAVQTDEGEKPLAGMDFAIADSVTDEMLADKAALVVEVVGDNYHHAPIVGIALANERGRFFLRPETALADPKFLAWLGDETKKKTMFDSKRAAVALKWKGIELRGVVFDLLLAAYLLDPAQAAGDVAAVAKMHQYEAVRSDEAVYGKGAKRTVPDEPTLAEHLVRKAAAIWALEEPLMDELRRNEQDRLLTELEQPLAGILANMEFTGVKVDTKRLEQMGAELTEQLQAVERRIYELAGQEFNINSPKQLGTVLFDKLQLPVLKKTKTGYSTSADVLEKLAPHHEIVEHILHYRQLGKLQSTYIEGLLKVVHPVTGKVHTMFNQALTQTGRLSSVEPNLQNIPIRLEEGRKIRQAFVPSEPDWLIFAADYSQIELRVLAHIAEDDNLIEAFRRGLDIHTKTAMDIFHVSEEDVTANMRRQAKAVNYGIVYGISDYGLAQNLNITRKEAAEFIERYFASFPGVKQYMDNIVQEAKQKGYVTTLLHRRRYLPDITSRNFNVRSFAERTAMNTPIQGSAADIIKKAMIDLSVRLREERLQARLLLQVHDELILEAPKEEIERLCRLVPEVMEQAVTLRVPLKVDYHYGPTWYDAK
[1]; 10 mM CaCl2, pre-steady-state
  Selectivity dCTP/nCTP, ratio (kpol/Kd, app)dCTP/(kpol/Kd, app)nCTP: 9
[1]; 3′-amino primer extension, 10 mM CaCl2, pre-steady-state, read-out: Kd, app dCTP
  Kd: 1100 nM
[1]; 3′-amino primer extension, 10 mM CaCl2, pre-steady-state, read-out: Kd, app nCTP
  Kd: 3600 nM
[1]; 3′-amino primer extension, varying dCTP, 10 mM CaCl2, pre-steady-state, 55° C., pH 8.8
  kpol dCTP: 0.191 min⁻¹
[1]; 3′-amino primer extension, varying nCTP, 10 mM CaCl2, pre-steady-state, 55° C., pH 8.8
  kpol nCTP: 0.069 min⁻¹
[1]; Ca2+ cofactor
  increase in kpol for dCTP vs. wild-type: 2.6 fold
  increase in kpol for nCTP (NP activity) vs. wild-type: 21 fold
[1]; nCTP, Ca2+, from Table 4
  transient kpol/Kd for NP-DNA synthesis with Ca2+: 320 M⁻¹ s⁻¹
[1]; saturating Ca2+ vs. Mg2+, faster with Ca2+
  maximum reaction velocity / NP activity, Ca2+ vs. Mg2+: 5 fold
[1]; with Ca2+
  apparent binding affinity for nCTP vs. dCTP, effect of the mutation: unaffected
[1]; with F710Y
  kinetic disadvantage of NP-DNA polymerase activity relative to native phosphodiester bond forming activity: approximately four orders-of-magnitude
[2]
  time to full length +28 nt NP-DNA product: < 24 h
